No end group written: not given here.
Key:
[1] = molecular target: human CRF receptor, subtype A, variant 1 (hCRF-RA1), encoded by clone hctCRFR (human) (UniProt P34998); assay: binding to the receptor encoded by hctCRFR in COSM6 cell membranes (competitive radioreceptor assay of Example 3)
[2] = molecular target: T1, human CRF receptor, subtype A, variant 1 (hCRF-RA1), encoded by clone hctCRFR (human, UniProt P34998 24-415); assay: pharmacologic specificity of the receptor of SEQ ID NO:2
T1 construct: Transiently expressed in COSM6 cells; Clone hctCRFR (ATCC 75474) and clone CRF-R1 are both said to encode hCRF-RA1; also called CRF-R1; hctCRF receptor
T1 sequence: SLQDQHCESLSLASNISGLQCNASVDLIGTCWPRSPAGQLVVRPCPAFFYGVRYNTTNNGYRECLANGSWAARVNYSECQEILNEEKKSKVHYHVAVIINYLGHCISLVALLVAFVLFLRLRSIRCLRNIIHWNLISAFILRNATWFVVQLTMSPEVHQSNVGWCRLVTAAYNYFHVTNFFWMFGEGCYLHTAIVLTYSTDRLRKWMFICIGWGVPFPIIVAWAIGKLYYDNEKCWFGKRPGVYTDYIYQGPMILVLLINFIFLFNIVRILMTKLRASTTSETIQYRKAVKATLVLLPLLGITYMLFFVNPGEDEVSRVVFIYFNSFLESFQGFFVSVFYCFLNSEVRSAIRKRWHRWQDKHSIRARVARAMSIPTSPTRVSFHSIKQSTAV

[3] = molecular target: T2, mouse CRF receptor, subtype B, variant 1 (mCRF-RB1) (mouse, UniProt Q60748 35-411); assay: competitive displacement of 125I-(Nle21,Tyr32)-ovine CRF, membranes of COSM6 cells transfected with pCRF-RB1, Ligand program, six experiments
T2 construct: Full-length cDNA (431 amino acids) in pcDNA1, transiently expressed in COSM6 cells; also called pCRF-RB1
Method: (§1) The reaction was terminated by filtration through GF/C (Whatman) filters, prewetted with 1% BSA, 10 mM HEPES, pH 7.5. The filters were washed 4 times with 1 ml 0.1% BSA, 50 mM Tris, pH 7.5.
(§2) Using the methods described in Example 3, a radioreceptor assay was conducted. Approximately […] of pCRF-RB₁ plasmid DNA was transfected into COSM6 cells using the DEAE dextran method. […] In order to calculate a Kd, the displacement data were analyzed using the Ligand program of Munson and Rodbard (1980), Anal. Biochem., 107:220-239.

[4] = molecular target: T2, mouse CRF receptor, subtype B, variant …; assay: competitive displacement of 125I-(Nle21,Tyr32)-ovine CRF, membranes of COSM6 cells transfected with pCRF-RB1
Method: as §1, §2

T2 sequence (Q60748 other isoform, or with tags, fused parts or gaps mutant limits assumed): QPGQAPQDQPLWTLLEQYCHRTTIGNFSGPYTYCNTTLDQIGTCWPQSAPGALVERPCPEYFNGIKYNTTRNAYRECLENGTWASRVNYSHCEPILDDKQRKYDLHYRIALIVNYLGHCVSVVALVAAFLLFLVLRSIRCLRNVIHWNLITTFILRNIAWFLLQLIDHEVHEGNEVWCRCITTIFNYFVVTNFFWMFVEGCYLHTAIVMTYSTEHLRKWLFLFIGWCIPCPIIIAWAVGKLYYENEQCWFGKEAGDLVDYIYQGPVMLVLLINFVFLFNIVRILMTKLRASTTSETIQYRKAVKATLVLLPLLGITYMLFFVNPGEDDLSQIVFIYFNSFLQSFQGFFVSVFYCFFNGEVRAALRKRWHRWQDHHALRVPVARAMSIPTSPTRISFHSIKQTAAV

CRF antagonist a-helical (9-41) CRF (peptide)
Kd [1]: 13 nM

QGPPISIDLSLELLRKMIEIEKQEKEKQQAANNRLLLDTI (ligand, UniProt P01144 1-40, looked up) [sauvagine]
binding result [2]: binds

B1: rat/human corticotropin-releasing factor (r/h CRF) (ligand, UniProt P06850 154-194, looked up)
peptide: SEEPPISLDLTFHLLREVLEMARAEQLAQQAHSNRKLMEII
notes: mature; The peptide in the assay is the mature 41-residue CRF; also called human/rat CRF; native r/h CRF
Kd [3]: ~1.3 nM

B2: hGRF(1-40)OH (peptide, UniProt P01286 32-71, looked up)
peptide: YADAIFTNSYRKVLGQLSARKLLQDIMSRQQGESNQERGA-OH
notes: range 1-40; also called growth hormone releasing factor
binding result [4]: no binding

B3: vasoactive intestinal peptide (VIP) (peptide, UniProt P01282 125-152, looked up)
peptide: HSDAVFTDNYTRLRKQMAVKKYLNSILN
notes: also called vasoactive intestinal polypeptide
binding result [4]: no binding

Source: US20040039173A1 (SALK INSTITUTE FOR BIOLOGICAL STUDIES, published 2004)
